Measurements published in the DeepSol protein solubility set.

assay: soluble on expression in E. coli; label from the status in PepcDB or PDB records

Sequence	soluble on expression in E. coli
VAYWLVKSEPSVWSWDQQVAKGAAGEAWTGVRNHSAKLHMVAMRRGDRAFYYHSNEGKEIVGIAEIIREAYPDPTDASGKFVCVDIKADKPLKTPVTLAAVKAEPRLADMALMKYSRLSVQPVTAEEWKLVCKMGGLLEHHHHHH	soluble
MGSSHHHHHHSSGRENLYFQGHMSANVQEAANAAIEPASFVKVPMPEPPSSLQQLINDWQLIKHREGGYFKETDRSPYTMEVEKPVNGGSGNTEMVTRNQSTLIYYLLTPDSPIGKFHKNINRIIHILQRGKGQYVLVYPDGQVKSFKVGFDYKNGEVSQWVVPGGVFKASFLLPNEEFDNGFLISEVVVPGFDFEDHTFLKGEDELKHLVGPEKAAELAFLA	soluble
AVREEIAGALYLGHSEGVVEKEDRDRILGALDLAERTVEEIMLHRSNIVMLDADAEPETILEHCLQSPHTRLPVYRGEPENIIGVVHAKDLFRAMYAQVGGSEGHTARLKDFDISRVANAPYFVPETTTLDDQMRAFLRMRSHFALVVDEYGSLRGLITLEDILEEIVGEIT	not soluble
MKRSLLACAMSCMMLTVSAHSDFDVRNVDSQFHVPEIGGGVGLIDQQKERQIGEKVFREIQKQMPVVHDPWLQEQYSQIFLRVLAQTSITQPVGLVIIKDPQINAFAVPGGLFALNTGLIANARNIDEVAGVMAHEVAHVTQRHYSRSQEAFKGQGLLALAGILVGAAVATTSNADVGSAVMLGTQAALMDRQLTYSRNQEREADRIGMQYMYAAGYNPQSMADFFETMQRSRVGSSFMPDFWMTHPLTTERMSEARLRANQLPKVETKLYDPNFQLLKWYTLAVSDPSSEKILENVVKQGNKEAQLALGAYYVGQGDFVKAQKQLDDIKSQFNENTLYCLIQTNIYLGQNELDQAYSSIVNIQRAMPESRALAYKLAEVMILQGKAGDTLQLIQPFVNRNPRDLEGWQLMQQASSIDRISPVQTVNTLRYRAEVQFWSGNEENAIKSLLHAQRLAKGNESLSARIDSRLKQMQSDYTMKI	not soluble
MGSDKIHHHHHHVPLLFGTAGVPLSAKERSTEAGVKRVRELQLDAMEVEFVQGVRMGEEKAQKIAQIAVEEKVALSCHGPYWINFNSQEPEKVAASRERLLHSARISKILGVKSVVFHPAFYHQDDPQVVLVRTAGELMKVREILDAEGNDVILRPETTGKPSQLGTLQEVLTLAQAVPGVLPCIDISHLHARSNGRINTYDEFCQVLEAAAESLGDRWVKHVHFHVSGIDYGVKGEKKHLILKESDLRYPELMKAFHTFGVEGLVICESPNLEEDALLLQTTYRTMA	not soluble
MSLNVFDKSGQSSGYKLSSTIGKNNTDVNKNDNNSAIYSESAVIVFGYPEYLSNQVITHFSHFGNILEDFEILRSSTGINNNTFRLHANLNALQEGSMSTKLPIFTGEGWVKITYDSPTSALRALKENGTVFTGHLIGCIPYSKSAVEQLALISVDKSDDIGSIDLGQINKSVNEDSRNKGSNGKVYPSLGSVDHIEPINGRQKEANMKSFGTPIINNNQQYLDHSIMAHPRHKLDIQDGKSLFVHNSSHHKTQFLDNIEKKIKEKEANKNESGSWSGRLTNWVFGWDNEGHHHHHH	soluble
MGSDKIHHHHHHMKKIVERAPTVEEAIEKVVKKYGLGEGEYTVNVLEKGFHGIFGLFSKEAVVEVQITKAYFERRLKEFLTEILQVVDPEVKITVKSSGRSFFVDVESENAGRLIGKHGKTMGALQHIAMIFLNRLSDTKLNVILDMGDYREKRKKSLEKIVEEAVKKAISEKTKVVLDPMFSFERKIVHKLVRKHRGVISYSVGVEPYRRVVIEYSATRREGRRKHDIKESI	not soluble
MTEILQTLKEYIPISLEEMSGIKLMNRTDTKYVTSYQILKEILLAAGHDYRVQEVNGEYNIAYHTIYLDTADRDMYLTHQNGRVVREKIRIRTYVDSDLTFLEVKNKNNKGRTDKKRIRIGSIDTIKEDGGEAFLRQHAWYEQSQLLPLLENSFRRITLVNKHKTERLTIDTGVTFCCLQSGKISSLDNIVIIELKRDGHNSSPIKEILRKLHIQSSGFSKYCIGSALTVSHLKCNRLKPKLRMLNKMGVYLEHHHHHH	soluble
MKFIRRCMMETRYTVRQAVEMTGVKSYVLRYWEEELELQIHRNELGHRYYTGYDIQLFLNIKELKKRGLQLRAIKNLIPQITASMTGFGESASTLLEGEVIDHAEVKTDRDLKEKISKKDEGKNDKILEFQAILERLITQELKAQNEDEERCRSLDYAIRRQQLARKEAAAAAEKKSGRRRRDK	not soluble
MGSDKIHHHHHHMVALTDPDLLFPPEAHSRSLARDLYAGIKDLPIVSPHGHTDPRWYALNEPFPDPAQLLIVPDHYIFRMLFSQGVRLEDLGVASLDGAPVETDGRTIWRRFAEHYYLFRGTPTRLWFDHVLAHLFGIEEPLDATTADRHYDTIATVLQWENFRPRALFERFNIEVIATTEGALDDLEWHKMIRDSGWEGRVVTAYRPDAVVDPDFEGFSANLDRLGEITGCDTGSWAGYLDAHRQRRAFFKSFGATSSDHGHPTAETANLSDAAAQELFNRIRRGSQDERERKLFRAQMLTEMAKMSRDDGLVLQIHPGSWRNHSPSVFQRFGRDKGFDIPTRTDYVTALKPLLDCVGLERDLTVILFTLDESSYARELAPLAGVYPALKLGPAWWFHDSPEGMRRFREMTTETAGFYNTVGFNDDTRAFPSIPARHDVARRVDCAFLARLVAEHRLREDEAHELARELAHTLAKKAYRL	not soluble
LPTSNPAQELEARQLERTTRDDLINGNSASCADVIFIYARGSTEAGNLGTLGPSIASNLESAFGKDGVWIQGVGGAYRATLGDNALPRGTSSAAIREMLGLFQQANTKCPDATLIAGGYSQGAALAAASIEDLDSAIRDKIAGTVLFGYTKNLQNRGRIPNYPADRTKVFCNTGDLVCTGSLIVAAPHLAYGPDARGPAPEFLIEKVRAVRGSA	soluble
MSKTRMEKLKTLKTIAETLNQGHDIKATLDEVLKELLSLTNLQSGWIFLIEEDGSYTLAADAYLPPALSRKEKVLMCEGECYCLTKFNNGGLRKAANIMNCKRIESAENLHCFDTEGITHHATVPLEDGDRRFGLLNVAAAGKTMFDEEELHLLESVAFQIGTAIQRMRLSE	soluble
MKLSKDTIAILKNFASINSGILLSQGKFIMTRAVNGTTYAEANISDEIDFDVALYDLNSFLSILSLVSDDAEISMHTDGNIKIADTRSTVYWPAADKSTIVFPNKPIQFPVASVITEIKAEDLQQLLRVSRGLQIDTIAITNKDGKIVINGYNKVEDSGLTRPKYSLTLTDYDGSNNFNFVINMANMKIQPGNYKVMLWGAGDKVAAKFESSQVSYVIAMEADSTHDF	soluble
MAGQIRMSPEELKSKATRYGQGANQIEDILRQLQNLQNELRGEWEGRAFEGFDQQFNQLKPKVQNFAQLLQEINMQLNKTAEAVARHDEDLSRNFGLQ	not soluble
MGSDKIHHHHHHMKYDVVVIGAGGAGYHGAFRLAKAKYNVLMADPKGELGGNCLYSGCVPSKTVREVIQTAWRLTNIANVKIPLDFSTVQDRKDYVQELRFKQHKRNMSQYETLTFYKGYVKIKDPTHVIVKTDEGKEIEAETRYMIIASGAETAKLRLPGVEYCLTSDDIFGYKTSFRKLPQDMVIIGAGYIGLEIASIFRLMGVQTHIIEMLDRALITLEDQDIVNTLLSILKLNIKFNSPVTEVKKIKDDEYEVIYSTKDGSKKSIFTNSVVLAAGRRPVIPEGAREIGLSISKTGIVVDETMKTNIPNVFATGDANGLAPYYHAAVRMSIAAANNIMANGMPVDYVDVKSIPVTIYTIPSLSYVGILPSKARKMGIEIVEAEYNMEEDVSAQIYGQKEGVLKLIFERGSMRLIGAWMIGVHSQYLINELGLAVAYGLNAKQLASFAEQHPSTNEIISYTARKVI	not soluble
MSLKSLEIFSGAGGLAKGLELAGFQHASFIELNKDACNSLRSNFNPKLVYQGDVADFDLSSQEGIEVIAGGPPCQPFSLGGKHLAHEDRRDMFPHAVRYVEYYRPKAFIFENVKGLLRKSFADYFEYILLRLTYPNLGILQNEDWKGHLTRLKEIEFNLYKGIKYKVSYQLLNAADYGVPQKRERVVIVGIRADLDIDWKFPKRTHSEDRLNWEKYVTGEYWEKHNEPKRFNKDIAEKLQKKYGIFEPEKKPWQTVRDTLSDIPHPLGNHKITGHEYRDGARIYPGHTGSGIDEPSKTIKAGGHGVPGGENMIRYDDGTVRYFTSYEAKLLQTFPEEFVISGAWGEAMRQIGNAVPVKLSEILGKHLMGVLSEKSSLHNEGHHHHHH	soluble
MAHHHHHHMCLGRSSGSALDTPLGAWWGGKRVAEIPPCPAESVTFVQLIARHFSPFVLRQHLPGAQDGLVTSSVQTREVAHKPVGCDVAVLVVVKRGAQVLRLPFARPHAKIPQKINKKLVRHALLTTRPLLLLQLKELSQCLNDRLWAAPTTQGALHTQKHAILARVVRVTPQHRRHRTTKAKQQQQQKQRNCSLVKSAHKT	not soluble
MAHHHHHHMPRPEILASCHQTLENCLIESTRNSMDATNKAMLESVAAEMMSVSDGVMRLPLFLAMILPVQLGAATADACTFIPVTRDQSDIYEVFNVAGSSFGSYAAGDVLDMQSVGVYSQLRRRYVLVASSDGTSKTATFKMEDFEGQNVPIRKGRTNIYVNRIKSVVDNGSGSLLHSFTNAAGEQITVTCSLNYNIGQIALSFSKAPDKGTEIAIETEINIEAAPELIPLINHEMKKYTLFPSQFVIAAEHTVQAAYEAQREFGLDLGSLQFRTLKEYLSHEQDMLRLRIMIWRTLATDTFDIALPVNQSFDVWATIIRGKFQTVYRDIIERVKSSGAMGMFAGADAASFFKQLPKDFFQPAEDYIQTPYVHYIGTPFRTTHST	not soluble
MSSTKIDTTKPLSILLLGVDTGADGRIDKGNSDTIMVVTINPQTKKTLITSIPRDSLAEMVGDQDTNVQKLNAAYNIGGSKMAKASVSKLFNVPIDYYATINMGGLKQIVDAVGGVTITSPLNVSFDHITVTKGKHHLNGKQALSYTRMRYQDPRGDYGRQLRQQQVMRAVLAKLAETKTYSRYNQLLTSLKGNLQTDLSFNDLVGLATHDRANMKHIQSTQVIGSPAWINTSSYQILSTKTLQQTSDRLRTQLGLSTETLTNMETKLNAKNTVYDGKTNLNYDTQGLDKITYSDNTKLEHHHHHH	soluble
MDYKVSVLIVCYNQEKYIKKALESVLSQKVNFNYEIVVCDDCSSDRTFNILQEYKSKLGSKLNLIRNYKNLGITLNYKNGFKNCKGEYIAVLEGDDYWIQKSKLKRQVSFLESNRDCSLVFNKIVLDYGDEKINNLIYPFNDIRKKFSARELVRSNFIQNFSCCMYRKSSIRKLRESIYDMVVYDWMFNMAVAQFGLIGYIPNYMTSHRILKSGLWSGKSKMENLQMISKCIDQYDSFFKYKYRKEFSQNKQEVLQALRRLVMVNENGLEHHHHHH	soluble
GPGSMPPSHTLLNRRGQQFSSRMHVGAKRKRVEDNASPVSSLYRPLCRGLSTRGSGASAVSCPSVVVILEKAGLLLGREGVVDAYDRAGSTTIANASLRDVRPDIVHQCLLALFDSGLAQEQRQLRVFINLFSRGGRTVEVSPSLRPPRTLRRFKGLVAALLRDGVVRSQDGEVLLQVLPGSLAPVLPYGAEVIGLTNAHSAPVRTPTQLARAALENPVDDKLQGGLKGVAGFFCICCSEDGSLDGVDYVTQQVCLSAYPMTAHVMCSRLCEGFSRAAATGNR	not soluble
NRYAKILVEKEKNRRTVMEQKMELESYKKVNVANDRYITLLHDTNHHIKTVYSLLKKDKKDDAMNMLSKLFDKYEKAEMIEYSGNTILNTILSDYKEKSSKENIECDIFVERGFNIEYVDEIDLVAMLSNLLSNSYEAAAKSDMKKIRIQMFMQNDGSFSVIKIENSYTSMIVEEDSVLKTTKQNKEFHGLGIKSVQQIAEKYNGWLSSTWSDNVFKSVLILENSMC	not soluble
